Measured values published in article doi:10.1101/2021.07.09.451618.

Molecular target: F-actin, rabbit skeletal muscle (rabbit) (UniProt P68135)

Substance: M15-2IQ : ELC : RLC complex (1:1:1), jordan (p.D1647G) MYO15 motor domain (from UniProt P60661 1-151)
- kcat: extrapolated maximum catalytic rate of the actin-activated ATPase: 0.87 s⁻¹

Substance: M15-2IQ : ELC : RLC complex (1:1:1), wild-type MYO15 motor domain (from UniProt P60661 1-151)
- kcat: extrapolated maximum catalytic rate of the actin-activated ATPase: 5.8 s⁻¹
